Data on two molecules can be found in patent US10078082B2, “Detection of free and protein-bound non-human gal-alpha(1-3)-gal epitope” (National University of Ireland, Galway, priority 2012, dated 2018).

A short description of data set [1]: scFv-based competitive ELISA, free Gal-α-(1→3)-Gal as standard, immobilized Gal-α-(1→3)-Gal-BSA. The class given is binding. The note with it: for ED50: free Gal-α-(1→3)-Gal disaccharide standard, plates coated with Gal-α-(1→3)-Gal-BSA 10 μg/ml, FIG. 6. The method, then:
FIG. 6: Standard curves for competitive ELISA given by scFv clones G12, A4, and A11. Plates were coated with immobilized Gal-α-(1→3)-Gal-BSA [10 μg/ml] and incubated with 2.5 μg/ml of the scFvs in the presence of an increasing concentrations of free Gal-α-(1→3)-Gal. The error bars indicate the standard error of the mean of triplicate determinations. Each scFv was evaluated in a competitive ELISA format using free Gal-α-(1,3)-Gal as standard. Microtitre plate wells were coated and blocked as previously described. Standard solutions were prepared in PBS (pH 7.2), ranging in concentration from 2 μg/ml (5.84 μM) to 20 mg/ml (58.4 mM). For the assay, 50 μl of each standard and buffer blank were added to designated wells in triplicate, followed by 50 μl of a sub-saturating concentration (1 μg/ml) of the appropriate scFv, giving a final standard concentration in the assay of 1 μg/ml (2.92 μM) to 10 mg/ml (29.2 mM). The plate was incubated for 1 hour at 37° C. with shaking After washing, bound scFv was detected as previously described. The ratios of the OD for each standard versus the OD given by the blank (B/Bo) were plotted versus standard concentration and standard curve plotted using SigmaPlot (v11, Systat Software Inc). The detection limits were determined as the concentration corresponding to the mean response for zero standard minus three times the standard deviation (SD). Inhibition of scFv by a panel of free sugars. scFv binding to Gal-α-(1→3)-Gal-BSA was determined against a panel of 21 free form sugars; D-Cellibiose, Melibiose, D-Raffinose, Lactulose, Palatinose, β-Gentibiose, D+ Trehalose, D+ Turanose, L− Fructose, D+ Glucose, Sucrose, Galacto-N-biose, 4β-Galactobiose, gal-α(1-3)-gal-β-(1-4)-gal, gal-α(1-3)-gal-β-(1-4)-glc, gal-α(1-3)-gal-β-(1-4)-gal-all-3)-gal, Laminarbiose, β1-4-D-Xylobiose, N-Acetyl-D-glucoseamine (GlcNAc), Galactose, N-Acetyl-D-lactosamine (LacNAc), (sourced from Sigma Aldrich and Dextra, UK). Inhibitions were performed by serial dilutions of free sugars and a sub-saturating concentration scFv added to each dilution and pre-incubated for 60 minutes at 37° C., prior to performing ELISA against Gal-α-(1→3)-Gal-BSA as used throughout. The percent binding of the scFv was plotted against the […], and the 50% effective dose determined (ED50; dose of free sugar causing 50% displacement of the scFv).

A short description of data set [2]: NGC microarray specificity analysis (over 50 structures). The class given is binding. Particulars: FIG. 8. The source says:
FIG. 8: Comparison of the specificity of selected scFv fragments A4, A11 and G12 against a panel of related NGCs compared directly to the specificity binding pattern of the lectin GS-1-B4, considered as highly specific for α-Gal residues.
The spectacular specificity of the scFvs has also been determined by analysis on an NGC microarray containing over 50 different structures. […] ScFv-based competitive ELISA. Competitive ELISAs were established with each of the three scFvs examined using as standard the free Gal-α-(1→3)-Gal disaccharide within the concentration range 0.001 to 10000 μg/ml (2.93 nM to 29.3 mM). […] A panel of 21 related sugars were tested in the scFv-based competitive assays (Table 1). […] All three scFvs were more reactive to the disaccharide than Gal-α-(1,3)-Gal-containing trisaccharides, as shown by lower inhibitory activity of the trisaccharides and supporting the results obtained in the direct ELISA.

Data set [3] can be described thus: Thermal denaturation monitored by far UV CD ellipticity. The class given is physicochemical. Particulars: for HD / Tm: λ 208. As to the method: (§1) Two types of experiments were performed: firstly, the near UV circular dichroism (CD) spectra of the scFvs in the absence and presence of 4 mM of both disaccharides have been compared. Secondly, the effect of the disaccharides on the thermal stability of the scFvs has been studied.
Samples were diluted in NaPi (10 mM)-NaCl (150 mM) pH 7.2 and either concentrated by ultrafiltration twice (for small amounts) or exhaustively dialyzed. CD spectra were acquired at 20° C. in a J-810 spectropolarimeter, equipped with a Peltier temperature control system, using a bandwidth of 1 nm, a scan rate of 20 nm/min and a response time of 4 s, collecting data every 0.2 nm and 3 accumulations for each spectrum. Near-UV spectra were registered at around 1.0 mg ml^−1 protein concentration in 1-cm path-length cells while far-UV spectra were recorded in 0.1 cm path-length quartz cells at a protein concentration of around 0.2 mg ml^−1. For all CD spectra, the corresponding buffer baseline was subtracted. […] Ellipticity changes were collected every 0.2° C. and spectra were collected every 10° C. The thermal denaturation profiles were fitted to a sigmoidal function using the equation:—
where Θ(T) represents the ellipticity at temperature T (Kelvin), ΘN the ellipticity of the native protein, n the number of transitions, ΔΘ1 the ellipticity increment of transition i, R the gas constant and Tmi and HDi the temperature at the transition midpoint (melting temperature) and the parameter which describes the cooperativity (slope) of the corresponding transition, respectively.
In the second set of experiments, the thermal stability of the scFvs in the absence and presence of the disaccharides was investigated. With this type of experiment, we were able to get: 1) the far UV CD spectra at increasing temperatures, which gave information on changes in the secondary structure of the proteins upon heating and 2) the profile of the change in ellipticity at a certain wavelength, also with increasing temperatures, that allowed the calculation of the temperature of transition (Tm). Direct comparison of the Tm in the absence and presence of sugar provided information about the effect of the sugar on the scFvs, a thermal stabilisation (i.e. an increase in the Tm in the presence of the sugar) being indicative of interaction.

Data set [4] can be described thus: Near UV circular dichroism interaction study with disaccharides. In kind it is binding. Particulars: pH 7.2, 20° C. As to the method:
The scFvs A4, A11 and G12 were used to check their interaction with Galα(1,3)Galβ1-OMe (Carbosynth) and with melibiose, the latter as negative control.
as §1
Samples were diluted in NaPi (10 mM)-NaCl (150 mM) pH 7.2 and either concentrated by ultrafiltration twice (for small amounts) or exhaustively dialyzed. CD spectra were acquired at 20° C. in a J-810 spectropolarimeter, equipped with a Peltier temperature control system, using a bandwidth of 1 nm, a scan rate of 20 nm/min and a response time of 4 s, collecting data every 0.2 nm and 3 accumulations for each spectrum. Near-UV spectra were registered at around 1.0 mg ml^−1 protein concentration in 1-cm path-length cells while far-UV spectra were recorded in 0.1 cm path-length quartz cells at a protein concentration of around 0.2 mg ml^−1. For all CD spectra, the corresponding buffer baseline was subtracted. Thermal stability was evaluated by measuring ellipticity changes at 208 nm while increasing temperature from 20 to 90° C., with a constant rate of 40° C./h. Ellipticity changes were collected every 0.2° C. and spectra were collected every 10° C. The thermal denaturation profiles were fitted to a sigmoidal function using the equation:—
In general terms: CD spectra are sensitive to the conformation of chiral molecules.

[5] abbreviates: in the presence of 4 mM Galα(1,3)Galβ1-OMe, 208 nm.
Where [6] appears, read: 4 mM melibiose (negative control).

For orientation: Tm means the temperature at the midpoint of the melting transition.

“And” between values parts separate entries of the source, which are not always exact repeats. Equal entries are not always repeated.

B1: scFv A4: chicken anti-Gal-α-(1→3)-Gal single chain antibody fragment, Seq Id No. 2 (protein)
scFv: QAALTQPSSVSTNPGGTVKITCSGGNGNYGWYQQKSPGSAPVTVIYSNNKRPSDIPSRFSGSKSGSTATLTITGVQVDDEAVYFCGAYDNTYVGVFGAGTTLTVLGQSSRSSSGGGSSGGGGSAVTLDESGGGLQTPGGGLSLVCKASGFTFSSYSMQWVRQTPGKGLEFVAGIGYSDSYTYFGPAVKGRATISRDNGQNTVRLQLNNLRAEDTATYYCARSADTIYGCTHPWCSADNIDAWGHGTEVIVSSTSGQAGQ
modifications: Synthetic protein sequence for scFv-A4 antibody fragment for detecting non-human Gal-alpha(1-3)-Gal
Take B1: the “ED50, composite standard curve” value in data set [1] (composite curve from 9 independent runs, FIG. 7, listed as A4) is 327 μg/ml and 0.95 mM. For the same molecule, the ED50 in data set [1] (listed as A4) was 311 μg/ml and 0.91 mM. The “Specificity for the Gal-α-(1→3)-Gal epitope compared with GS-1-B4” value in data set [2] is reported as “much higher specificity”. Moreover, the HD in data set [3] (+4 mM Galα(1,3)Galβ1-OMe) was determined as 52 ± 3 kcal/mol; in data set [3] (Pure scFv) it was 57 ± 3 kcal/mol. For the same molecule, the results for the Tm in data set [3] (+4 mM Galα(1,3)Galβ1-OMe) and in data set [3] (Pure scFv) were 74.8 ± 0.3 °C and 64.6 ± 0.2 °C, respectively. Further, the “Change in cooperativity (HD)” value in data set [3] (setting [5]) was roughly 4.7 kcal/mol. Moreover, the “Change of near UV CD spectrum” value is reported as “molar ellipticity per residue in general decreased” in data set [4] (4 mM Galα(1,3)Galβ1-OMe) and “remained unchanged” in data set [4] (setting [6]).

B2: scFv A11: chicken anti-Gal-α-(1→3)-Gal single chain antibody fragment, Seq Id No. 4; clone D9 has the same sequence (protein)
scFv: QAALTQPSSVSANPGETVKITCSGGGSYGGSYYYGWYQQKSPGSAPVTVIYSNDNRPSDIPSRFSGSTSGSTSTLTITGVQVDDEAVYYCGTYDSSYVGIFGAGTALTVLGQSSRSSGGGSSGGGGSAVTLDESGGGLQTPGGGLSLVCKASGFTFSSYSMQWVRQTPGKGLEFVAGIGYSDSYTYFGPAVKGRATISRDNGQNTVRLQLNNLRAEDTATYYCARSADTIYGCTHPWCSADNIDAWGHGTEVIVSSTSGQAGQ
modifications: Synthetic protein sequence forscFv-A11 antibody fragment for detecting non-human Gal-alpha(1-3)-Gal
In the case of B2, the ED50 in data set [1] (listed as A11) was 1225 μg/ml and 3.58 mM. Moreover, the “Specificity for the Gal-α-(1→3)-Gal epitope compared with GS-1-B4” value in data set [2] is “much higher specificity”. For the same molecule, the HD in data set [3] (+4 mM Galα(1,3)Galβ1-OMe) was determined as 95 ± 6 kcal/mol; in data set [3] (+4 mM melibiose), 141 ± 7 kcal/mol; in data set [3] (Pure scFv), 134 ± 7 kcal/mol. The Tm in data set [3] (+4 mM Galα(1,3)Galβ1-OMe) stood at 69.0 ± 0.2 °C; in data set [3] (+4 mM melibiose), 61.1 ± 0.1 °C; in data set [3] (Pure scFv) it was 61.3 ± 0.1 °C. Also, in data set [3] (setting [5]), the “Change in cooperativity (HD)” value was roughly 38.5 kcal/mol. The “Stabilisation (increase in Tm)” value in data set [3] (setting [5]) stood at 7.7 °C. For the same molecule, the “Change of near UV CD spectrum” value in data set [4] (4 mM Galα(1,3)Galβ1-OMe) and in data set [4] (setting [6]) was “No significant changes were observed” throughout.
